Test results published in article PMC6565748, “Environmental pH and peptide signaling control virulence of Streptococcus pyogenes via a quorum-sensing pathway” (Nature Communications, 2019).
Where a SMILES comes first, the peptide text is derived from it. Where no end group is shown, it is not given here. The star is where a group is joined. FITC = O=C1OC2(c3ccc(O)cc3Oc3cc(O)ccc32)c2ccc(NC(=S)*)cc21

How the values were obtained:
SpeBM = assay: SpeB protease activity assay with SpeBZ-C192S zymogen as substrate; format: biochemical, Streptococcus pyogenes; details: SDS-PAGE; 0.25 mg/ml C192S zymogen, 0.1 µg mature SpeB, different buffer pH
Method: Purified C192S was added to a final concentration of 0.25 mg/ml in reaction mixture containing 0.1 µg of mature SpeB in different buffer pH conditions. Aliquots were collected at indicated time points and reaction was stopped by adding SDS gel-loading buffer. Proteolytic processing of C192S zymogen into mature form was visualized by SDS-PAGE.

RopB = target: T1, RopB (Streptococcus pyogenes, UniProt Q9FB04); assay: Fluorescence polarization (FP) assay of RopB binding to fluoresceinated SIP peptides; details: Fig. 3c; compared to SIP (SIP-WT)
T1 sequence (Q9FB04 1-280): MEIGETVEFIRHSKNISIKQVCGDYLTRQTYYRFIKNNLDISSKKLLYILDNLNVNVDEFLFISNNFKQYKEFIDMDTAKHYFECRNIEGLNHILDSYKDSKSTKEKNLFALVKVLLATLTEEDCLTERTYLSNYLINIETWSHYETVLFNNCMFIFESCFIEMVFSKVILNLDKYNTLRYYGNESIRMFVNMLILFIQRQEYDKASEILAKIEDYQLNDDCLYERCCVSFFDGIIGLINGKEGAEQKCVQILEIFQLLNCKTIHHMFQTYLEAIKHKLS
Method: The coding regions of the full-length and C-terminal domain (RopB–CTD) (amino acids 56–280) of ropB gene of strain MGAS10870 were cloned into plasmids pET-28a and pET-21b, respectively. Protein was overexpressed in E. coli strain BL21 (DE3). Protein overexpression and purification for both full-length RopB and RopB–CTD were carried out as described previously[37],[68]. The proteins were purified to >95% homogeneity and concentrated to a final concentration of ~ 20 mg/ml.
(§1) Fluorescence polarization-based RopB-ligand binding experiments were performed with a Biotek microplate reader (Biotek) using the […] fluorescence of fluorescein labeled DNA or synthetic peptides. The polarization (P) of the labeled DNA or synthetic peptides increases as a function of protein binding, and equilibrium dissociation constants were determined from plots of millipolarization (P × 10^–3) against protein concentration. For RopB–DNA-binding studies, 1 nM 5′-fluoresceinated oligoduplex in binding buffer (20 mM Tris–HCl pH 8.5, 200 mM NaCl, 1 mM TCEP and 25% DMSO) was titrated against increasing concentrations of purified RopB and the resulting change in polarization measured. Samples were excited at 490 nm and emission measured at 530 nm. […]

[1] = tested on: speB expression in SIP* mutant strain; assay: Synthetic peptide addition assay, speB transcript level by qRT-PCR in SIP* mutant strain; format: cell-based, Streptococcus pyogenes
Method: Synthetic peptides of high purity (>90% purity) obtained from Peptide 2.0 (Chantilly, VA) were suspended in 100% DMSO to prepare a 10 mM stock solution. Stock solutions were aliquoted and stored at −20 °C until use. Working stocks were prepared by diluting the stock solution in 25% DMSO.
GAS strains were grown to the indicated A600 and incubated with two volumes of RNAprotect (Qiagen) for 10 min at room temperature. RNA isolation and purification were performed with an RNeasy kit (Qiagen). After quality control analysis, cDNA was synthesized from the purified RNA using Superscript III (Invitrogen) and Taqman qRT-PCR was performed with an ABI 7500 Fast System (Applied Biosystems). Comparison of transcript levels was performed by the ∆CT method of analysis using tufA as the endogenous control gene[5],[78]. The primers and probes used for qRT-PCR are listed in Supplementary Table 2.

[2] = tested on: RopB–speB promoter interactions; assay: FP assay of RopB–DNA binding in presence of SIP peptides; set-up: species or system Streptococcus pyogenes; details: fluoresceinated oligoduplexes with RopB binding sites from speB promoter, RopB complexed with SIP peptide (Supplementary Fig. 8c, d)
Method: as §1, with “nm. The RopB-peptide-binding studies were performed in a peptide-binding buffer composed of 20 mM potassium phosphate pH 6.0, 75 mM Nacl, 2% DMSO, 1 mM EDTA and 0.0005% Tween 20. All data were plotted using KaleidaGraph and the resulting plots were fitted with the equation P = {(Pbound − Pfree)[protein]/(KD + [protein])} + Pfree, where P is the polarization measured at a given protein concentration, Pfree is the initial polarization of the free ligand, Pbound is the maximum polarization of specifically bound ligand and [protein] is the protein concentration. Nonlinear least squares analysis was used to determine Pbound, and Kd.” for “nm.”

[3] = target: regulator of proteinase B (RopB), full-length, wild type; assay: FP assay; details: for Kd: parent: 13 ± 0.3 nM
[4] = target: synthetic SIP variant SIP-L6A (Streptococcus pyogenes); assay: fluorescence polarisation; fluorescein labeled synthetic peptide titrated with purified RopB protein; 20 mM potassium phosphate pH 6.0, 75 mM NaCl, 2% DMSO, 1 mM EDTA, 0.0005% Tween 20
[5] = target: synthetic SIP peptide containing fluorescein modification at its amino-terminus (FITC-SIP); assay: FP assay; details: for Kd: parent: 6.3 ± 0.5 nM
[6] = target: T2, regulator of proteinase B (RopB), full-length, wild type (Streptococcus pyogenes (strain …)); assay: FP; pH 5.5
T2 chain: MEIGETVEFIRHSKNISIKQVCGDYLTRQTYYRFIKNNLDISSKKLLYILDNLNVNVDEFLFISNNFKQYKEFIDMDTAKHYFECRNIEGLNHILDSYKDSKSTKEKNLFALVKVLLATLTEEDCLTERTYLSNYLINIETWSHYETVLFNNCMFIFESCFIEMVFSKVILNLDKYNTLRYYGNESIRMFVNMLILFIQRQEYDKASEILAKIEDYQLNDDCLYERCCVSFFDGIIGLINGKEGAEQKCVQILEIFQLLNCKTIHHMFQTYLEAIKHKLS

[7] = target: T2, regulator of proteinase B (RopB), …; assay: FP; pH 6.5
[8] = target: T2, regulator of proteinase B (RopB), …; assay: FP; pH 7.5
[9] = target: T2, regulator of proteinase B (RopB), …; assay: FP; pH 9.0
[10] = target: T2, regulator of proteinase B (RopB), …; assay: FP; pH 8.5
[11] = target: T2, regulator of proteinase B (RopB), …; assay: FP; pH 6.0
[12] = target: T2, regulator of proteinase B (RopB), …; assay: FP; pH 7.0
[13] = target: T2, regulator of proteinase B (RopB), …; assay: FP; pH 8.0

CC(C)C[C@H](NC(=O)[C@H]1O[C@@H]1C(=O)O)C(=O)NCCCCN=C(N)N [E64]
Proteolytic cleavage of SpeBZ-C192S by SpeBM (SpeBM): inhibited

CSCC[C@H](N)C(=O)N[C@@H](Cc1c[nH]c2ccccc12)C(=O)N[C@@H](CC(C)C)C(=O)N[C@@H](CC(C)C)C(=O)N[C@@H](CC(C)C)C(=O)N[C@@H](C)C(=O)N[C@@H](Cc1ccccc1)C(=O)N[C@@H](CC(C)C)C(=O)O [SIP-L6A] (H-MWLLLAFL-OH; N-terminus and C-terminus assumed)
Fold change reduction in Kd (RopB): ~ 2.7
Ability to activate RopB-dependent speB expression ([1]; SIP addition assay, SIP* mutant strain, reference DMSO-supplemented strain (Fig. 3d)): partial activity
Effect on RopB–promoter (operator sequence) interactions [2]: WT-like binding to operator sequences

CSCC[C@H](N)C(=O)N[C@@H](Cc1c[nH]c2ccccc12)C(=O)N[C@@H](CC(C)C)C(=O)N[C@@H](CC(C)C)C(=O)N[C@@H](CC(C)C)C(=O)N[C@@H](CC(C)C)C(=O)N[C@@H](Cc1ccccc1)C(=O)N[C@@H](CC(C)C)C(=O)O [SIP] (H-MWLLLLFL-OH; N-terminus and C-terminus assumed)
SIP-dependent speB expression (speB transcript level) ([1]; SIP* mutant strain at A600 ~1.7, THY broth adjusted to different pH, synthetic SIP, 1 h, relative to unsupplemented strain): maximal within a very narrow pH range (pH 5.5–6.0)
Ability to induce speB expression ([1]; SIP* mutant strain, THY pH 8, SIP added even at 100-fold excess, 1 h): lost the ability to induce speB expression

SpeB-inducing peptide (SIP), synthetic, unmodified F7A
ratio to parent [3]: 11
Kd [3]: 0.142 µM

SpeB-inducing peptide (SIP), synthetic, unmodified L3A
ratio to parent [3]: 41
Kd [3]: 0.534 µM

SpeB-inducing peptide (SIP), synthetic, unmodified L4A
ratio to parent [3]: 27
Kd [3]: 0.358 µM

SpeB-inducing peptide (SIP), synthetic, unmodified L5A
ratio to parent [3]: 48
Kd [3]: 0.625 µM

SpeB-inducing peptide (SIP), synthetic, unmodified L6A
Kd [3]: 0.036 µM

SpeB-inducing peptide (SIP), synthetic, unmodified L8A
ratio to parent [3]: 8
Kd [3]: 0.106 µM

SpeB-inducing peptide (SIP), synthetic, unmodified M1A
ratio to parent [3]: 20
Kd [3]: 0.259 µM

SpeB-inducing peptide (SIP), synthetic, unmodified W2A
ratio to parent [3]: 44
Kd [3]: 0.57 µM

regulator of proteinase B (RopB), full-length, wild type (receptor)
fold reduction in binding affinity compared to SIP [4]: 2.7 fold

regulator of proteinase B (RopB), full-length, wild type F155A
ratio to parent [5]: 5
Kd [5]: 0.033 µM

regulator of proteinase B (RopB), full-length, wild type M267A
ratio to parent [5]: 44
Kd [5]: 0.283 µM

regulator of proteinase B (RopB), full-length, wild type N152A
ratio to parent [5]: 28
Kd [5]: 0.243 µM

regulator of proteinase B (RopB), full-length, wild type N192A
ratio to parent [5]: 72
Kd [5]: 0.462 µM

regulator of proteinase B (RopB), full-length, wild type R188A
ratio to parent [5]: 67
Kd [5]: 0.429 µM

{FITC}-MWLLLLFL [synthetic SIP peptide containing fluorescein modification at its amino-terminus (FITC-SIP)]
Kd [6]: 0.0054 µM
Kd [7]: 0.0029 µM
Kd [8]: 0.0421 µM
Kd [9]: 0.32 µM
Kd [10]: 0.222 µM
Kd [11]: 0.0018 µM
Kd [12]: 0.0118 µM
Kd [13]: 0.0786 µM
